Consider twelve substances from publication PMC2172684.

The Kd is the free concentration of one partner at which half of the binding sites on the other are occupied at equilibrium, for simple one-to-one binding. Read a low Kd as tighter binding.

Where two headings read alike, the source gives them in different places.

Common to all, as to experiment: ELISA
Background: In an ELISA, binding on a coated surface is turned into a signal by an enzyme label.

In test [1] the target is importin α (UniProt P52292).
Test [2] concerns the target importin α (UniProt P52292). This is another data set of the same source.
The target of the next test is GST–RanGTP (UniProt P62826).

As to “wild-type importin β (from UniProt Q14974 1-876) (natural protein)”, the Kd with importin α [1] and with importin α [2] was 0.9 nM throughout.
“wild-type importin β (from UniProt Q14974 1-876) (natural protein; other documents disagree on this pair)”: the Kd with GST–RanGTP stood at 3.3 nM.
Consider “importin β m-N/m-C (from UniProt Q14974 1-876) (natural protein)”, for which the Kd in the test with importin α [2] came out at 2.1 nM. In other words, the single-digit nanomolar range.
Same read-out and setting: for “importin β L612D/F688A (m-C) (from UniProt Q14974 1-876) (natural protein)” the value was 2.2 nM.
Substance “importin β I263R (from UniProt Q14974 1-876) (natural protein)” displayed a Kd with importin α [1] of 0.9 nM.
With “importin β I178D/Y255A (from UniProt Q14974 1-876) (natural protein)”, the Kd with importin α [1] is 1.1 nM.
The substance “importin β (304–876) (from UniProt Q14974 304-876) (domain or fragment)” returned a Kd with importin α [2] of 2.5 nM.
With “importin β I178D (from UniProt Q14974 1-876) (natural protein)”, the Kd in the test with importin α [1] was 1.2 nM.
For “importin β I178A/F217A/Y255A/I263R (m-N) (from UniProt Q14974 1-876) (natural protein)”, the Kd in the test with importin α [1] turned out to be 1.2 nM; in the test with importin α [2], 1.1 nM.
In turn, “importin β I178A (from UniProt Q14974 1-876) (natural protein)” came in with a Kd with importin α [1] of 1.1 nM.
“importin β E214A (from UniProt Q14974 1-876) (natural protein)”: in the test with importin α [1], the Kd came out at 1.3 nM.
In turn, “importin β m-C (304–876) (from UniProt Q14974 304-876) (domain or fragment)” came in with a dissociation constant Kd with importin α [2] of 4.3 nM.
